The record followed here is patent US20180298360, “CAS9 VARIANTS AND METHODS OF USE THEREOF” (The Regents of the University of California, published 2018).

In the data set the target is T1, ΔHNH-Cas9 (ΔHNH-4; T769-K918 replaced by GGSGGS) (Streptococcus pyogenes).
T1 chain: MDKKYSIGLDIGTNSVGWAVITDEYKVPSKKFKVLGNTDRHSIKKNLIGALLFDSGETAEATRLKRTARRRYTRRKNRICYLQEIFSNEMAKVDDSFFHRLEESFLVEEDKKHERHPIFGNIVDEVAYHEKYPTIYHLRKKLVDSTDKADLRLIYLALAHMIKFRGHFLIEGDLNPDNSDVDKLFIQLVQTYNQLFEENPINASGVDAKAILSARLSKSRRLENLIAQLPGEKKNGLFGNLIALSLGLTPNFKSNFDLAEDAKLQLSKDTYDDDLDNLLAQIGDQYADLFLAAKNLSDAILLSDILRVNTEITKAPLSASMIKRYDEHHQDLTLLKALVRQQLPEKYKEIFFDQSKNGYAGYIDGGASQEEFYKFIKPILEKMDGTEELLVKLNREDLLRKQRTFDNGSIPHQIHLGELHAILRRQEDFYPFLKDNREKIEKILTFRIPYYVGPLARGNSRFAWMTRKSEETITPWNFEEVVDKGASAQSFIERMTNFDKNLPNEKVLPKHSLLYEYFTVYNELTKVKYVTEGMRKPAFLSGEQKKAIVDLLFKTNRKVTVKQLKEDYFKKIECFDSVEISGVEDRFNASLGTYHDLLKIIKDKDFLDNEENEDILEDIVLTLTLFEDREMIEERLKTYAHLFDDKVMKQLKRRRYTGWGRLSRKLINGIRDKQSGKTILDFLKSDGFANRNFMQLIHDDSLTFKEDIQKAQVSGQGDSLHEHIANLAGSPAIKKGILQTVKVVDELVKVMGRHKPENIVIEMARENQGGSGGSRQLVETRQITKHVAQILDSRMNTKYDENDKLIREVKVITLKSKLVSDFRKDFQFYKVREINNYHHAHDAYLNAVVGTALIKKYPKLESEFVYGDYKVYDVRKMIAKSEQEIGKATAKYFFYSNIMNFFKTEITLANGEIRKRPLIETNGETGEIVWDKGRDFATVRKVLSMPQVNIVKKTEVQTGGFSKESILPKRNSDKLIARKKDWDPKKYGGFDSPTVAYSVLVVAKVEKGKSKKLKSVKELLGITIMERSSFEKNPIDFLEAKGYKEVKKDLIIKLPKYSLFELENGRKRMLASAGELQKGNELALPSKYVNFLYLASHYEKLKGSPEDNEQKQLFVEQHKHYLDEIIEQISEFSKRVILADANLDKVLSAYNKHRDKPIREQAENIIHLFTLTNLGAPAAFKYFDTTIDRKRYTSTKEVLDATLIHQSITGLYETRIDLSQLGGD
The experiment in a line: EMSA; PAM TGG; 5 mM MgCl2, 100 mM KCl, pH 7.5, 50 ug/mL heparin, room temperature, 100 nM sgRNA. The settings on record: tags: N-terminal His10-MBP, TEV protease treated; label: 5'-radiolabel; single-guide RNA.

Method: Binding reactions (15 μL) were performed at room temperature in Reaction Buffer supplemented with 50 μg/mL heparin using <0.1 nM radiolabeled dsDNA substrates. Reactions were resolved by 8% native polyacrylamide gel electrophoresis (0.5×TBE, 5 mM MgCl₂) for 1.5-2 hr at 4° C. in a running buffer containing 0.5×TBE and 5 mM MgCl₂. Reactions were visualized by phosphorimaging (GE Healthcare).
Reactions were resolved by 8% native polyacrylamide gel electrophoresis. […] Solid lines represent fits from binding isotherms.

B1: sgRNA (bacteriophage target) ; 55-bp DNA substrate (ssRNA ; dsDNA)
RNA: GACGCAUAAAGAUGAGACGCGUUUUAGAGCUAUGCUGUUUUGGAAACAAAACAGCAUAGCAAGUUAAAAUAAGGCUAGUCCGUUAUCAACUUGAAAAAGUGGCACCGAGUCGGUGCUUUUUUUGGAUC
DNA 1: AGCAGAAATCTCTGCTGACGCATAAAGATGAGACGCTGGAGTACAAACGTCAGCT
DNA 2: AGCTGACGTTTGTACTCCAGCGTCTCATCTTTATGCGTCAGCAGAGATTTCTGCT
As a reminder, the Kd is the free concentration of one partner at which half of the binding sites on the other are occupied at equilibrium, for simple one-to-one binding. As to B1, the Kd came out at 1.2 nM.
